Assay results: patent publication US20160200813A1 (AbbVie / Abbott, published 2016)
Several values for one entry are separate records, joined by “and”; a condition that tells them apart may be missing. Equal entries are not always repeated. *1 amine or outer side, *2 acyl side, *3 side chain or, on linkers, in order; H or OH if unused. Bridges are numbered along the chain shown (N, C = ends). Where no end group is shown, it is not given here. Lys(Aoa) = NOCC(=O)NCCCC[C@H](N[*:1])C(=O)[*:2]

Legend:
[1] = molecular target: T1, CR1.4 variant cyclic peptide (human, disulfide 1-13); assay: BIACORE and direct ELISA
T1 peptide: H-CEKDQAQARAERCIPSVWR-{Lys(Aoa)-NH2}

[2] = molecular target: T2, Cynomolgus monkey LRP-8 expressed on HEK293 cells (cynomolgus monkey); assay: FACS, cyno LRP8 cells
T2 construct: whole, on cells; also called cyno LRP-8; cLRP-8

[3] = molecular target: T3, CR1 cyclic peptide of human LRP-8 (human, disulfide 1-13); assay: ELISA using CR1 peptide
T3 construct: also called CR1 peptide; conjugated human LRP-8 CR1 peptide
T3 peptide: CEKDQFQSRNERCIPSVWR-{Lys(Aoa)-NH2}

[4] = molecular target: T4, Human LRP-8 (isoform 3) expressed on cells (human, UniProt Q14114 33-963); assay: cell-based binding assay, hLRP8
T4 construct: also called hLRP-8; huLRP-8

[5] = molecular target: T2, Cynomolgus monkey LRP-8 expressed on …; assay: cell-based binding assay, cynoLRP8
[6] = molecular target: T5, CR1.1 variant cyclic peptide (human, disulfide 1-13); assay: ELISA, antibody titrated on coated CR1.1 peptide
T5 peptide: H-CEKDQAQSRNERCIPSVWR-{Lys(Aoa)-NH2}
Method: (§1) High binding MSD plates (MSD Cat# L15XB-3/L11XB-3) were coated with 1 μg/ml of CR1 or CR2 peptide overnight at 4° C. The next day, the plate was blocked with 3% MSD blocking buffer (MSD Cat# R93AA-01) for 1 hour at RT. The plates were washed with TTBS buffer (20 mM Tris; 0.5% Tween, 150 mM sodium chloride; pH 7.5) three times and a titer of anti-LRP-8 human Fc Ab was added. After incubating for 1 hour at RT, plate was washed and anti-human SULFO-TAG Ab was added to the plate and incubated for 1 hour. The plates were washed and immersed in MSD read buffer T with surfactant (MSD Cat# R92TC-1) before reading on an MSD SECTOR Imager 6000. Data were obtained and analyzed using a GraphPad Prism 6 software package (GraphPad Software, Inc., La Jolla, Calif.).

[7] = molecular target: T6, CR1.2 variant cyclic peptide (human, disulfide 1-13); assay: ELISA, antibody titrated on coated CR1.2 peptide
T6 peptide: H-CEKDQFQARNERCIPSVWR-{Lys(Aoa)-NH2}
Method: as §1

[8] = molecular target: T7, CR1.3 variant cyclic peptide (human, disulfide 1-13); assay: ELISA, antibody titrated on coated CR1.3 peptide
T7 peptide: H-CEKDQFQSRAERCIPSVWR-{Lys(Aoa)-NH2}
Method: as §1

[9] = molecular target: T4, Human LRP-8 (isoform 3) expressed on …; assay: cell-based MSD-ECL binding on cells overexpressing human LRP-8 variant 3 (hLRP8 assay)
Method: (§2) A cell-based ECL-MSD binding assay was used to determine antibody affinity. HEK293 cells overexpressing human, monkey or mouse LRP-8 were added onto MSD 96-well plate (MSD Cat# L15XB-3/L11XB-3) and incubated at 37° C. for one hour. Cells were blocked using 15% FBS (Hyclone, Thermo Scientific Cat# SH300700.03) at RT for 30 minutes with mild agitation. Plates were washed with DPBS three times and Abs or DVD-Ig binding proteins were added to the well. After incubation at RT for one hour, plates were washed with DPBS and goat anti-human or anti-mouse Sulfo TAG (MSD Cat#R32AJ-1) was added. Plates were incubated at RT for one hour, washed with DPBS and immersed in MSD read buffer (MSD Cat#R92TD-2) before reading on a MSD SECTOR Imager 6000. EC50 values were obtained using Xlfit4 software system.

[10] = molecular target: T2, Cynomolgus monkey LRP-8 expressed on …; assay: cell-based MSD-ECL binding on cells overexpressing cyno LRP-8 variant 1 (cynoLRP8 assay)
Method: as §2

[11] = molecular target: T3, CR1 cyclic peptide of human LRP-8; assay: antibody titrated on plates coated with 1 ug/ml CR1 peptide (Example 1.12.2); lower table, column ng/ml
Method: as §1

[12] = molecular target: T8, CR2 cyclic peptide of human LRP-8 (human, disulfide 1-13); assay: antibody titrated on plates coated with 1 ug/ml CR2 peptide (Example 1.12.2); lower table, column ng/ml
T8 construct: also called CR2 peptide; conjugated human LRP-8 CR2 peptide
T8 peptide: CADSDFTSDNGHCIHERWK-{Lys(Aoa)-NH2}
Method: as §1

T4 sequence (Q14114 other isoform, or with tags, fused parts or gaps limits assumed): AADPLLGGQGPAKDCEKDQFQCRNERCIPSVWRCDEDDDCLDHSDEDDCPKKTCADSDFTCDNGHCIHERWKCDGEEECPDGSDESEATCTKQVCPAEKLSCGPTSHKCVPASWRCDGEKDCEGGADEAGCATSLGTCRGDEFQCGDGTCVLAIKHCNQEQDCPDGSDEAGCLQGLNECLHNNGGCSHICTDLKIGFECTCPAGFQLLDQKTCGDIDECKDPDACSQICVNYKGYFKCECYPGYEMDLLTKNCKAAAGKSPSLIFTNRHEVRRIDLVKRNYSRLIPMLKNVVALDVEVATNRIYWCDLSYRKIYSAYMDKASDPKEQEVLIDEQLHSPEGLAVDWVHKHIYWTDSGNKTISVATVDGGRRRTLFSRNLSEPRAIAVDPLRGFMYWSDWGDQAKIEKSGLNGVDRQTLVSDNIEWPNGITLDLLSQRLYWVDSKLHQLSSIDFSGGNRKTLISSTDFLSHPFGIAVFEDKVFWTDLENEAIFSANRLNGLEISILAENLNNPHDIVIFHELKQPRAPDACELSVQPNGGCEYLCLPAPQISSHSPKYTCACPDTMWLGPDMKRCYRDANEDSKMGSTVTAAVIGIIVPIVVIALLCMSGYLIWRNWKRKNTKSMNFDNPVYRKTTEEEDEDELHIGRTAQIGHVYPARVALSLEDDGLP

B1: chimeric anti-LRP-8 ML199.11H1.5B2 antibody [mu/hu IgG1/k] LALA (antibody, V domains shown)
VH: EVQLVESGGDLVKPGGSLKLSCAASRFTFSNYGMSWVRQTPDKRLEWVATISSGGRYTYYPDSVKGRFTISRDNAKNTLYLQMSSLRSEDTAMYYCARDYLYAMDYWGQGTSVTVSS
VL: DVVMTQTPLSLPVSLGDQASISCRSSQSLVYSNGNTYLHWYLQKPGQSPKVLMYKVSNRFSGVSDRFSGSGSGTDFTLKISRVEAEDLGVYFCSQSTHVPLTFGAGTKLELK
notes: Mouse variable domains on human IgG1/kappa with L234A, L235A (LALA); also called ML199.11H1.5B2 hFc; ML199.11H1.5B2 mu/hu IgG1 m/k
In the case of B1, the binding result [1] is reported as “no binding”, the “FACS (ratio +/-)” value [2] is reported as 141 ratio and the OD450 [3] is reported as 4 OD450. The EC50 [4] was 0.22 nM, the EC50 [5] was 0.21 nM and the binding result [6] was “no binding (tested: 10000 ng/ml)”. The binding result [7] was “binds”, the binding result [8] was “binds” and the EC50 [9] was 0.0484 µg/mL and 0.32 nM. For the same binder, the EC50 [10] was 0.0691 µg/mL and 0.46 nM, the EC50 [11] was 0.225 µg/mL and the EC50 [12] was 0.312 µg/mL.
